Experiment in all cases: Kinase Profiling Assay
Holding throughout (assay type): biochemical
Details in all cases: 100 μM peptide

One test concerns the target MSK1(h) (Homo sapiens, UniProt O75582). Summed up:
(§1)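 Selectivity profiling: MK2-targeting peptides tested on 266 human kinases. All activity determinations done in duplicate.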

The next test concerns the target MEK1(h) (Homo sapiens, UniProt Q02750). In outline:
as §1

The target of a further test is T1, ULK3(h) (Homo sapiens, UniProt Q6PHR2).
T1 sequence (Q6PHR2 1-472): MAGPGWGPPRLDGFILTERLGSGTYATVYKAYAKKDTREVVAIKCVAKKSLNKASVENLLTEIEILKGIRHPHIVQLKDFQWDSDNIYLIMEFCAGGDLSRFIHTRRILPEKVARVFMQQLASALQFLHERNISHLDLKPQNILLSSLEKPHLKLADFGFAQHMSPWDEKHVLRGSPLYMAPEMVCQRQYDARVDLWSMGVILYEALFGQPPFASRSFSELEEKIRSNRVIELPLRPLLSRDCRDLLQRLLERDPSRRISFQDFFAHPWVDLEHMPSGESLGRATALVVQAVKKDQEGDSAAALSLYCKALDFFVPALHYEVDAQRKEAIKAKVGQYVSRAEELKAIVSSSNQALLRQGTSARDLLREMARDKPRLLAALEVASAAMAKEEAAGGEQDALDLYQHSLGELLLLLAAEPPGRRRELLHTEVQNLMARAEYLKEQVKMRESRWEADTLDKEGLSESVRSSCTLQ
In outline:
as §1

In a further test the target is FGFR4(h) (Homo sapiens, UniProt P22455). In outline:
as §1

The target in a further test is CHK2(h) (Homo sapiens, UniProt O96017). In outline: as §1
CHK2(h), sequence (O96017 whole entry): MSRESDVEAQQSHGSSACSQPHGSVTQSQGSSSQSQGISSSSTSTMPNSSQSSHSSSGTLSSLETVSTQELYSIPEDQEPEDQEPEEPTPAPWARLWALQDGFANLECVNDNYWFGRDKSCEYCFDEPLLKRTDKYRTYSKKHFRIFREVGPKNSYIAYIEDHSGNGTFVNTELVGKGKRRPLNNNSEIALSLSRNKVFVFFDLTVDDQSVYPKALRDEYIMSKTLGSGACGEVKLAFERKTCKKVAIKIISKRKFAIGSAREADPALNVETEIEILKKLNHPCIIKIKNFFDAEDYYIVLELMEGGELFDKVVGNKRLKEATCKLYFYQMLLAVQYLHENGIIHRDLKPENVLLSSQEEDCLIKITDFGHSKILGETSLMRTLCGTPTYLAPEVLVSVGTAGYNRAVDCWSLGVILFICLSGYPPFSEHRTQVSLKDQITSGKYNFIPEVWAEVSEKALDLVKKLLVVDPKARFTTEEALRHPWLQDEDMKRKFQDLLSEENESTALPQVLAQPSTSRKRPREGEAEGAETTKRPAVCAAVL
The next test concerns the target MST3(h) (Homo sapiens, UniProt Q9Y6E0). Summed up: as §1
The next test addresses F1t4(h) (Homo sapiens, UniProt P35916). In outline:
as §1

In the next test the target is STK33(h) (Homo sapiens, UniProt Q9BYT3). Summed up:
as §1

Another test deals with T2, TSSK2(h) (Homo sapiens, UniProt Q96PF2).
T2 sequence (Q96PF2 1-358): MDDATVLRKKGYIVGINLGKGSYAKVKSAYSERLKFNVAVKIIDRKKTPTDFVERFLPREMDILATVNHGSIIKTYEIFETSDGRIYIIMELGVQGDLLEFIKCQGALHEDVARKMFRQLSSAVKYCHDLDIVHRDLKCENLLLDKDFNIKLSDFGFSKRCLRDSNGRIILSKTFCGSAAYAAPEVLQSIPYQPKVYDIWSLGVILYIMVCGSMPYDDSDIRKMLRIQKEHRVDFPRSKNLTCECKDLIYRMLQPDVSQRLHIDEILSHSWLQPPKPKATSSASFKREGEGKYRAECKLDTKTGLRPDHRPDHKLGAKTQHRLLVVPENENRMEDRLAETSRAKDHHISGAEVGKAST
In outline: as §1

A further test addresses Rsk4(h) (Homo sapiens, UniProt Q9UK32). In outline: as §1
For another test, the target named is T3, SGK2(h) (Homo sapiens, UniProt Q9HBY8).
T3 sequence (Q9HBY8 1-367): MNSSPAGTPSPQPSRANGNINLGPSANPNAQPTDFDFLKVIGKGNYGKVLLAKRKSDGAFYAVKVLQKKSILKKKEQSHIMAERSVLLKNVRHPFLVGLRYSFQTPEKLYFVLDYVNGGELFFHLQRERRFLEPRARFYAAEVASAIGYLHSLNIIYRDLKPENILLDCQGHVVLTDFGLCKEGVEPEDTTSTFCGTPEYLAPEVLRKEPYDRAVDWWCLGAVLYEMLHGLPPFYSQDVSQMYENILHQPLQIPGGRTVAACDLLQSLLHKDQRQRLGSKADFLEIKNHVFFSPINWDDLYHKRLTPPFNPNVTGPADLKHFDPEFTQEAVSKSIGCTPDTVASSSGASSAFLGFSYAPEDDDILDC
In outline: as §1

Another test deals with T4, HIPK2(h) (Homo sapiens, UniProt Q9H2X6).
T4 construct: purchased Millipore
T4 sequence (Q9H2X6 whole entry): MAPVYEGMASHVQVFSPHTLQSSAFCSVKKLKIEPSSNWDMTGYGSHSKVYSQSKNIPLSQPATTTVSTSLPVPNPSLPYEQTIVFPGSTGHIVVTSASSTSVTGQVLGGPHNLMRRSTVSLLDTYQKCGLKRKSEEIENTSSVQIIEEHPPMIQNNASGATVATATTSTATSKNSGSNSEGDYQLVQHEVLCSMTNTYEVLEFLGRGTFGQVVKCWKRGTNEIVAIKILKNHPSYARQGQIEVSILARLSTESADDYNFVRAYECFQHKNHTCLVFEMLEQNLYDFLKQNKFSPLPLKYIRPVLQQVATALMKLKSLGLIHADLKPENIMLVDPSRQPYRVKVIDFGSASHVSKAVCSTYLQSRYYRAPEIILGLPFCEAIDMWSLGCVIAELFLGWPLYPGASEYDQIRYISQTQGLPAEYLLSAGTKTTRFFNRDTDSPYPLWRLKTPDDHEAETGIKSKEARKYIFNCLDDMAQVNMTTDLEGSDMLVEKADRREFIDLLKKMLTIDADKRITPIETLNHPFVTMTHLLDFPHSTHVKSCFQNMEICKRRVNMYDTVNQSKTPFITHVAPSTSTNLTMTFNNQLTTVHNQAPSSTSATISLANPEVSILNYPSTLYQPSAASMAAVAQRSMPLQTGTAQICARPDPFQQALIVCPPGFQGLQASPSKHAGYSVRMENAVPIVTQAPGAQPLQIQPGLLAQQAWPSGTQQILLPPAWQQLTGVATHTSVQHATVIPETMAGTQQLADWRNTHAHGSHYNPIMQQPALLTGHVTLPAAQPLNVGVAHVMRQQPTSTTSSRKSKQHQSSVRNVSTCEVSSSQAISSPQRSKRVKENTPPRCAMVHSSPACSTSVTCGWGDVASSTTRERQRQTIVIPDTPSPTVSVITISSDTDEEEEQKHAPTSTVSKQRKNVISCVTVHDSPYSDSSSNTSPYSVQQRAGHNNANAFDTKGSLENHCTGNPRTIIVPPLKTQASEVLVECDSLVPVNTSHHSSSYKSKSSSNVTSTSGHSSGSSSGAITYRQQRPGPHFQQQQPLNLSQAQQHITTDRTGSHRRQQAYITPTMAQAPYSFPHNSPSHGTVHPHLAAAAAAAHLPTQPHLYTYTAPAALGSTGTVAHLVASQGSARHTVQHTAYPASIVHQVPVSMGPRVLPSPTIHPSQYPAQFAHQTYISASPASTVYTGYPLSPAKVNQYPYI
Summed up:
as §1

The next test addresses LOK(h) (Homo sapiens, UniProt O94804). Summed up: as §1
For the next test, the target named is EGFR(L858R)(h) (Homo sapiens, UniProt P00533, L858R). In outline: as §1

The text below walks through data of patent US10562947B2, “Compositions and methods for preventing or treating diseases, conditions or processes characterized by aberrant fibroblast proliferation and extracellular matrix deposition” (MOERAE MATRIX, INC., priority 2011, dated 2020).

LOK(h), sequence (O94804 whole entry): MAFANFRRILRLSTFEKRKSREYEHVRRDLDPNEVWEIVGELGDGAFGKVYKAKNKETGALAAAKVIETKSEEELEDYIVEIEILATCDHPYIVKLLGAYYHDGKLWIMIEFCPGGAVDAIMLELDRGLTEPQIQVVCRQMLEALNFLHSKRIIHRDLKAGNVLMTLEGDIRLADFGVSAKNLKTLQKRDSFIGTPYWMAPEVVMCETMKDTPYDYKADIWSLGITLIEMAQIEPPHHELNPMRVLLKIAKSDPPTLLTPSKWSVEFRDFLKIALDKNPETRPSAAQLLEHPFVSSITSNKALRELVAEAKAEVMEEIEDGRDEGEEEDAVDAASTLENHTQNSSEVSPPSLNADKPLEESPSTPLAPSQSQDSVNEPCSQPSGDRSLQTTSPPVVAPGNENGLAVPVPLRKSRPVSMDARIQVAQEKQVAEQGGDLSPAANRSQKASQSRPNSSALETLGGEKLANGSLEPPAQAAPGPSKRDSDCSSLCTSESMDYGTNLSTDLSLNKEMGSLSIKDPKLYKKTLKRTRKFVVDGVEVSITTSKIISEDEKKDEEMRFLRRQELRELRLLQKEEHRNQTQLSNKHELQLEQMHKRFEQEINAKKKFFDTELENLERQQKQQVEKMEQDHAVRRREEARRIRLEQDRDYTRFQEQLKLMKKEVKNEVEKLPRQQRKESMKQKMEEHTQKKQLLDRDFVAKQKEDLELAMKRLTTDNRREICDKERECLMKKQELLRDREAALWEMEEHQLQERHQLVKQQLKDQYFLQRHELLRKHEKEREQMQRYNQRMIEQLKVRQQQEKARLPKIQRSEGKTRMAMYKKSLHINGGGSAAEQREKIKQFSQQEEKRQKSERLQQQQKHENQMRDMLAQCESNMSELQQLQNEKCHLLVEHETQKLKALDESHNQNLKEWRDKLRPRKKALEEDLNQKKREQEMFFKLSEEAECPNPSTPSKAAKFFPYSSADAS
MST3(h), sequence (Q9Y6E0 whole entry): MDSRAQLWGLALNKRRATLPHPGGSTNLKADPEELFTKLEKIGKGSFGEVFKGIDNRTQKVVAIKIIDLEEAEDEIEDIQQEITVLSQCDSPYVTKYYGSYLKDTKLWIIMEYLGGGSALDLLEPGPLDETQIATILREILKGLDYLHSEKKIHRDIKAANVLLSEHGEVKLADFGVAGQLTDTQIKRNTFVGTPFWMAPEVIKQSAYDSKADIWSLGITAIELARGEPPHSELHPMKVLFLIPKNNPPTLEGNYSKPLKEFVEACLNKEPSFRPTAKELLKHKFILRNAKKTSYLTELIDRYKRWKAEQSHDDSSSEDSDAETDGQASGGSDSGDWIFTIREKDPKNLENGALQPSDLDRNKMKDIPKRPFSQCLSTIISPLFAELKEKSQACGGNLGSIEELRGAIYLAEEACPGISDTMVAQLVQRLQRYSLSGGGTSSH
STK33(h), sequence (Q9BYT3 whole entry): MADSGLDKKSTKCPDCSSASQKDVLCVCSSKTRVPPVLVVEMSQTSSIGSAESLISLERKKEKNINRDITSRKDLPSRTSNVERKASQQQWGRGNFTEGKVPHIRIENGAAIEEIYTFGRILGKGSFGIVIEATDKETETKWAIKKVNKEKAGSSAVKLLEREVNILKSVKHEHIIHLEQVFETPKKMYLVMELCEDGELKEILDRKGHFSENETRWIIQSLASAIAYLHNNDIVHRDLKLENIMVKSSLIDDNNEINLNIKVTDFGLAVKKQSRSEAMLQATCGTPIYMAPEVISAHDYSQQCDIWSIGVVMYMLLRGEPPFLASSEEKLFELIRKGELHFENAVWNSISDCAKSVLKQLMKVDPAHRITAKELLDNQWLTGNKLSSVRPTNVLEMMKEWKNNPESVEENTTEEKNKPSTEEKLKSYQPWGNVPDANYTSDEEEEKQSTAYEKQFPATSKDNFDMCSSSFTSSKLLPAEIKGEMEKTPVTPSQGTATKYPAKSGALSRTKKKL
MSK1(h), sequence (O75582 whole entry): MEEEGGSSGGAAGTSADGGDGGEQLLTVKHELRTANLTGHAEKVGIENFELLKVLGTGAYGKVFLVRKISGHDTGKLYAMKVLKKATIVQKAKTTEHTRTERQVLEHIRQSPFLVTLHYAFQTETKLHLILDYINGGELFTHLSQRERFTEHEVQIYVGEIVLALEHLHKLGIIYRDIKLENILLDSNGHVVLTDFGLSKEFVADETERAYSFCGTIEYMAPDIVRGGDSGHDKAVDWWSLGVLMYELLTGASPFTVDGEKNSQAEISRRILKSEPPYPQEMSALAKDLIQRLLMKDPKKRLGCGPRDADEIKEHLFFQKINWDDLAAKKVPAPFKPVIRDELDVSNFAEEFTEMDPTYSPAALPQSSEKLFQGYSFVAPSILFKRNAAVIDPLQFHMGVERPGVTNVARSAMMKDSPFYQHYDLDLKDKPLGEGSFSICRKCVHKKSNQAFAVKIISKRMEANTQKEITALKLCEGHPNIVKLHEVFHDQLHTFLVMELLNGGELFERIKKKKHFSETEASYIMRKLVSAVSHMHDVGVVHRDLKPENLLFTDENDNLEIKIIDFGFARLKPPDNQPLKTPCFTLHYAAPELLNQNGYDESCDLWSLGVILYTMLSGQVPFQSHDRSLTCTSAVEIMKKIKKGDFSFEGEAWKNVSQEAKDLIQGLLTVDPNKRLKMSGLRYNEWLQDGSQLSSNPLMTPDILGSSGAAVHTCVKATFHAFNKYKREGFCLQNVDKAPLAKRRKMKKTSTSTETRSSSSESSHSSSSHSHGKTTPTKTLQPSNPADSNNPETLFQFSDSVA

FAKLAARLYRKALARQLGVAA [MMI-0300]: the “MSK1(h) % activity” value with MSK1(h) is listed as 32%. Also, the “MEK1(h) % activity” value with MEK1(h) was found to be 77%. In addition, in the test with ULK3(h), the “ULK3(h) % activity” value is 167%. In addition, in the test with FGFR4(h), the “FGFR4(h) % activity” value was 28%. The “CHK2(h) % activity” value with CHK2(h) is recorded as 66%. In addition, the “MST3(h) % activity” value with MST3(h) was found to be 45%. Further, the “F1t4(h) % activity” value with F1t4(h) stood at 83%. Moreover, the “STK33(h) % activity” value with STK33(h) is reported as 45%. In the test with TSSK2(h), the “TSSK2(h) % activity” value is recorded as 98%. Besides, in the test with Rsk4(h), the “Rsk4(h) % activity” value was determined as 90%. Besides, the “SGK2(h) % activity” value in the test with SGK2(h) came out at 56%. Moreover, in the test with HIPK2(h), the “HIPK2(h) % activity” value stood at 73%. For the same sequence, the “LOK(h) % activity” value with LOK(h) is listed as 37%.

Consider KAFAKLAARLYRKALARQLGVAA [MMI-0400], for which the “MSK1(h) % activity” value in the test with MSK1(h) amounted to 28%. For the same sequence, the “MEK1(h) % activity” value with MEK1(h) was 77%. Moreover, the “EGFR(L858R)(h) % activity” value with EGFR(L858R)(h) is 52%. Further, the “ULK3(h) % activity” value with ULK3(h) is reported as 147%. Besides, the “FGFR4(h) % activity” value with FGFR4(h) was 19%. Also, the “CHK2(h) % activity” value with CHK2(h) amounted to 54%. In addition, the “MST3(h) % activity” value in the test with MST3(h) is 36%. In addition, the “F1t4(h) % activity” value in the test with F1t4(h) turned out to be 89%. In addition, in the test with STK33(h), the “STK33(h) % activity” value is reported as 52%. The “TSSK2(h) % activity” value in the test with TSSK2(h) is reported as 94%. For the same sequence, the “Rsk4(h) % activity” value with Rsk4(h) is reported as 91%. The “SGK2(h) % activity” value in the test with SGK2(h) was 98%. In addition, in the test with HIPK2(h), the “HIPK2(h) % activity” value is 90%. For the same sequence, the “LOK(h) % activity” value with LOK(h) is given as 18%.

“HRRIKAWLKKIKALARQLGVAA (Mammalian) [MMI-0500]”: the “MSK1(h) % activity” value in the test with MSK1(h) was 8%. For the same sequence, the “MEK1(h) % activity” value with MEK1(h) turned out to be 21%. The “EGFR(L858R)(h) % activity” value with EGFR(L858R)(h) is recorded as 26%. The “ULK3(h) % activity” value with ULK3(h) came out at 177%. Moreover, the “FGFR4(h) % activity” value with FGFR4(h) was determined as 3%. Moreover, in the test with CHK2(h), the “CHK2(h) % activity” value is 13%. The “MST3(h) % activity” value with MST3(h) was found to be 4%. The “F1t4(h) % activity” value in the test with F1t4(h) is listed as 73%. Moreover, the “STK33(h) % activity” value with STK33(h) is reported as 16%. Also, the “TSSK2(h) % activity” value with TSSK2(h) was found to be 92%. In the test with Rsk4(h), the “Rsk4(h) % activity” value stood at 29%. Further, in the test with SGK2(h), the “SGK2(h) % activity” value was −1%. For the same sequence, the “HIPK2(h) % activity” value in the test with HIPK2(h) was 38%. In addition, the “LOK(h) % activity” value with LOK(h) is on record as 7%.

Turning to “YARAAARQARAKALNRQLGVA (Mammalian) [MMI-0200]”, in the test with MSK1(h), the “MSK1(h) % activity” value amounted to 50%. For the same sequence, the “EGFR(L858R)(h) % activity” value with EGFR(L858R)(h) is recorded as 120%. For the same sequence, the “ULK3(h) % activity” value in the test with ULK3(h) turned out to be 164%. For the same sequence, the “FGFR4(h) % activity” value with FGFR4(h) came to 75%. In addition, in the test with MST3(h), the “MST3(h) % activity” value came out at 95%. In the test with STK33(h), the “STK33(h) % activity” value is reported as 98%. Besides, the “TSSK2(h) % activity” value with TSSK2(h) is 91%. The “Rsk4(h) % activity” value in the test with Rsk4(h) is listed as 125%. Further, the “LOK(h) % activity” value with LOK(h) was 67%.
